# Measured values reported in US20090288225A1, “Novel Aromatic Acyltransferase Genes” (Aomori Prefecture, priority 2006, published 2009).
# B1: 3′AT protein: acyltransferase purified from butterfly pea petals, transfers aromatic acyl group to glucosyl group at position 3′ of anthocyanin (after Mono Q) (protein)
# chain: GTIVEFLPGFDGPLPFVLETGYVGVGEGEDVQVFYYFVESENNPNEDPLMLWLTGGPGCSAFSGLALEIGPLIFKREEYNGGLPNLILRPHSWTKVSSIIFVDLPVSTGFTYARTDAAAQRSDWTLVHHAHEFLRKWLIDHPKFLQNELYIGGDSYSGIPIPVIVQEISQENEKGIQPWINLQGYILGNAITTRREKGYSIPFAHGMALISDELYESLRKNCKGEYLNVDPENVLCSRDIDSYSKATSRISFAHILERTCNSGDIKTSLRRSTIQRHHTKKFLNTNLKLPPLTCRTYANFQCGLWANDDNVRSALHIHKGSIGEWHRCSIRLPFTSDIPNSFEYHVNLSRKGYYRSLIYSGDHDMMVPFLGTQAWIRSLNYSIVDDWRPWNTNGQVAGYTRTYSNRMTYATIKGGGHTAPEFKPEECFAMYSRWISKRPLYENNTMSSYTNLASIL
# B2: LeGT13-30: lobelia 1-O-acyl-β-D-glucose synthase, 486 amino acid residues, SEQ ID NO: 18 (protein)
# chain: MGSLQGTTTVENLTHVFLVSFPGQGHVNPLLRLGKILASKGLLVTFSAPEMVGEIIKGANKYISDDELTPIGDGMIRFEFFSDSLGNTKEDNALRGNMDLYMPQLATFAKKSLSDILVKHQHHGRPVACLINNPFIPWISELAEEFNIPSAVLWVQSCASFSAYYHYHHNLVPFPTENEPERDVQLPSMPLLKYDEIPGFLLPSSPYGFLRRAILGQFKLLSKPICILVESFQELEDDCINYLSTLCPIKPIGPLFINPNVKTGSSIRGDFMKVEDCIDWLNTRADSSVVYISFGSIVYVKQEQITEIARGLADSGLSFLWAFKQPGVDMGLKPPSLPDGFLEEVKGRGKVVEWCSQEAVLGHPAVSCFMSHCGWNSTMEALSSGVPVAAFPIWGDQVTDAKFLVDEFKVGIRMCRGEADINKKVVPREEIARCLLAATSGPKAEELRRNALKWKKAAADSVGAGGSSDRNLEEFVGSIKKGVIGH
# modifications: Lobelia erinus cv.Riviera Midnight Blue; Amino acid sequence of UDP-glucose hydroxycinnamic acid 1-O-glucosyltransferase
# How the values were obtained:
# [1] = Acyltransferase activity of purified 3′AT, substrates preternatin C5 and 1-O-p-coumaroyl-β-D-glucose; assay type: biochemical, butterfly pea (Clitoria ternatea); conditions: 3′AT activity
# Description: A reaction solution (20 μl) containing 100 mM phosphate buffer (pH 6.5), 0.4 mM anthocyanin (4 μl), 0.5 mM 1-O-acyl-β-D-glucose (4 μl) and an enzyme solution (8 μl) was reacted at 30° C. The reaction was terminated by adding 4 μl of 1M aqueous hydrochloric acid solution. After addition of 24 μl of 5% acetonitrile containing 0.05 M TFA, the reaction solution was filtered with Millex-LH filter (Millipore) and then analyzed by HPLC by feeding a 10 μl aliquot.
# HPLC analysis of anthocyanin acyltransferase reaction products were performed with Develosil ODS-UG-5 column (3.0 i.d.×250 mm; Nomura Chemical) at a column temperature of 35° C. Against an initial solvent that was 0.05 M trifluoroacetate (TFA)-containing 5% acetonitrile (MeCN) aqueous solution, 0.05 M TFA-containing 40% MeCN was added with a linear concentration gradient from 14 to 86% (20 min) and the reaction products were eluted at a flow rate of 0.5 ml/min. The reaction products were detected with PDA and their molecular weights were confirmed by LC-MS/MS. […]
# [2] = UDP-glucose:hydroxycinnamate 1-O-glucosyltransferase activity of recombinant proteins from E. coli; assay type: biochemical; conditions: against all four types of hydroxycinnamic acid used
# Description: The transformed E. coli was shaking-cultured overnight in 3 ml of LB medium containing 50 μg/ml kanamycin and 34 μg/ml chloramphenicol. This culture broth (500 μl) was inoculated into LB medium (50 ml) and shaking-cultured until absorbance at 600 nm reached 0.4. Then, isopropyl-β-D-thiogalactoside (IPTG) was added to give a final concentration of 0.4 mM. The cells were shaking-cultured at 25° C. for 16 hr and then harvested by refrigerated centrifugation (8000 rpm, 4° C., 20 min). CtGT11-4 protein was partially purified from the cells using Ni-NTA mini-column according to the method recommended by the manufacturer. […]
# For measuring enzyme activity, a 30 μl reaction solution containing 100 mM potassium phosphate buffer (pH 7.4), 30 pmole of UDP-glucose, 30 pmole of hydroxycinnamic acid and 15 μl of recombinant protein solution was reacted at 30° C. […] The enzyme reaction products were analyzed by reversed-phase high performance liquid chromatography (Shiseido NanoSpace system) using Develosil C30-UG-5 (1.5 i.d.×250 mm). […] The eluted materials were detected with a PDA detector, and the resultant data were analyzed to thereby quantitatively determine 1-O-acyl-β-D-glucose. […]
# LeGT13-20 and LeGT13-30 genes were expressed using pET30Ek/LIC System (Novagen). […] Resultant several clones were analyzed to confirm the nucleotide sequences thereof, and then transformed into E. coli BL21-CodonPlus(DE3)-RP. […]
Molecule,specific activity [1],glucosyltransferase activity [2]
B1,1492.6 pkat/mg,
B2,,glucosyltransferase activity was confirmed
